Results on 1 molecule are retold here after patent publication US20090214428A1 (HENRY M JACKSON FOUNDATION FOR THE ADVANCEMENT OF MILITARY …, published 2009).

The assay deals with T1, myc-tagged NiV G (full-length, from lysates of infected cells) (Nipah virus, UniProt Q9IH62 1-602).
T1 sequence: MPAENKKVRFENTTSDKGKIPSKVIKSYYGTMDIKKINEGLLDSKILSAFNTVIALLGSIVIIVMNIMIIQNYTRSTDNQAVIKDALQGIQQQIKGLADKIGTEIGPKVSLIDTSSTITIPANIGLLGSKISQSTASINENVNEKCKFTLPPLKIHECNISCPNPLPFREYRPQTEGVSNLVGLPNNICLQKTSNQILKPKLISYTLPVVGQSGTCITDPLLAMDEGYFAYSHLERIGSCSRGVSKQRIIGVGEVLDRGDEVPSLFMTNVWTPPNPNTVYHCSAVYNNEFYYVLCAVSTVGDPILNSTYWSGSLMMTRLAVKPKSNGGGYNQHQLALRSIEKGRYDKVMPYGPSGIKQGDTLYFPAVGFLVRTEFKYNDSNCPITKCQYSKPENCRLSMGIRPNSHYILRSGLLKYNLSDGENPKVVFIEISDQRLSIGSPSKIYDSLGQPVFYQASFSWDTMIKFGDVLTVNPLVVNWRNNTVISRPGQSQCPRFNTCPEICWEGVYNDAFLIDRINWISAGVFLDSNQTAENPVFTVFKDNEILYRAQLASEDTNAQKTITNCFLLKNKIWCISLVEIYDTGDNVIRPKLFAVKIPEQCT
As to the kind of experiment: immunoprecipitation of 35S-labelled myc-tagged G from cell lysate.

B1: Fab m102 (Fab, V domains shown)
VH: EVQLVQSGAEVKKPGSSVKVSCKSSGGTFSNYAINWVRQAPGQGLEWMGGIIPILGIANYAQKFQGRVTITTDESTSTAYMELSSLRSEDTAVYYCARGWGREQLAPHPSQYYYYYYGMDVWGQGTTVTVSS
VL: EIVLTQSPGTLSLSPGERATLSCRASQSITNGRLAWYQQKPGQAPRLLIYGVSSRASGIPERFSGSGSGTDFTLTISRLEPEDFAVYYCQQYGSSVLFGPGTKVDIKR
With B1, the binding result is given as “binds”.
